The labels stand for the following.
T1: human IL-11 (human, UniProt P20809 22-199)
T1 construct: In the ELISAs this is recombinant human IL-11 coated on the plate (expressed in CHO cells as Fc-tagged and tag-free versions); In the fibroblast assays it is the IL-11 produced by human fibroblasts after TGFβ1 stimulation; also called recombinant human IL-11 (GenScript Cat. No. Z03108-1); interleukin 11
T1 sequence (looked up): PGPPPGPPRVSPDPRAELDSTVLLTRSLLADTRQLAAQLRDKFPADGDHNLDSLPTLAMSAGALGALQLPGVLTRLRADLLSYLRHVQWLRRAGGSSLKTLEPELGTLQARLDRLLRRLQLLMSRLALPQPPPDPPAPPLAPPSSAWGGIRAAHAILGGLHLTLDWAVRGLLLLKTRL

B1: YU46-A8 (Fc fusion, not shown: a dimerising Fc or GST; small tags and cut ends)
VH: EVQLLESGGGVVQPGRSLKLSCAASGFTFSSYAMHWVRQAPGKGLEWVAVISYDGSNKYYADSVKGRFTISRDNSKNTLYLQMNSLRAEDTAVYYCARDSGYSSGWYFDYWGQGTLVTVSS
VL: QSALTQPRSVSGSPGQSITISCTGTSSDVGGYEYVSWYQQHPGKAPRLLIYDVSNRPSGVSNRFSGSKSGNTASLTVSGLQAEDEADYYCNSYTSSGTLVVFGGGTKLTVL
notes: tested as scFv-Fc (human IgG1); also called #45
B2: YU45-G7 (Fc fusion)
VH: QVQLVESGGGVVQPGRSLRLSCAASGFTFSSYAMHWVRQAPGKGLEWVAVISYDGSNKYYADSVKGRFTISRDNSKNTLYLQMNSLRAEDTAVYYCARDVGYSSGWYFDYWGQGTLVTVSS
VL: QSVLTQPPSVSAAPGRTVTISCSGSYSNVGSNLVSWYQQLPGTAPKLVIYEDDKRLSGIPDRFSGSKSGTSASLAISGLQSEDEADYYCAAWDDSLKGHVFGGGTQLTVL
notes: tested as scFv-Fc (human IgG1); also called #33
B3: YU46-B6 (Fc fusion, not shown: a dimerising Fc or GST; small tags and cut ends)
VH: QVQLVQSGAEVKKPGASVKVSCKASGYTFTSYGISWVRQAPGQGLEWMGWISAYNGNTNYAQKLQGRVTMTTDTSTSTAYMELRSLRSDDTAVYYCARVVAAARSYYYYMDVWGKGTTVTVSS
VL: SSELTQDPAVSVALGQTVRITCQGDSLRGYYATWYQQKPGQAPVVVMYGNNNRPSGIPDRFSGSSSGNTASLTITGAQAEDEADYYCDSRGRSGDHWLFGGGTKLTVL
notes: tested as scFv-Fc (human IgG1); also called #47
B4: YU45-C11/A10 (Fc fusion)
VH: EVQLLESGGGVVQPGRSLRLSCAASGFTFSSYAMHWVRQAPGEGLEWVAVISYDGSNKYYADSVKGRFTISRDNAKDSLYLQMNSLRDEDTAVYYCARRGYFDYWGQGTLVTVSS
VL: QSALTQPASVSGSPGQSITISCTGTSSDVGGYNYVSWYQQHPGKAPKLMIYDVSNRPSGVSNRFSGSKSGNTASLTISGLQAEDEADYYCSSYTSSSTVVFGGGTKLTVL
notes: tested as scFv-Fc (human IgG1); also called #6
B5: YU45-H3 (Fc fusion)
VH: EVQLVESGGGVVQPGRSLRLSCAASGFTFSSYAMHWVRQAPGKGLEWVAVISYDGSNKYYADSVKGRLTISRDNSKNTLYLQMNSLRAEDTAVYYCARMVNLYYGDAFDIWGQGTMVTVSS
VL: QSALTQPASVSGSPGQSITISCTGTSSDVGGYNYVSWYQQHPGKAPKLMIYDVSNRPSGVSNRFSGSKSGNTASLTISGLQAEDEADYYCSSYTSSSTVVFGGGTKLTVL
notes: tested as scFv-Fc (human IgG1); also called #25
B6: YU45-H11/D12 (Fc fusion)
VH: EVQLLESGGGVVQPGRSRRLSCAASGFTFSSYGMHWVRQAPGKGLEWVAVISYDGSNKYYADSVKGRFTISRDNSKNTLYLQMNSLRAEDTAVYYCAKLYSGSSNFDYWGQGTLVTVSS
VL: QSALTQPASVSGSPGQSITISCTGTSSDVGGYNYVSWYQQHPGKAPKLMIYDVSNRPSGVSNRFSGSKSGNTASLTISGLQAEDEADYYCSSYTSSSTWVFGGGTKLTVL
notes: tested as scFv-Fc (human IgG1); also called #9
B7: YU45-H10 (Fc fusion)
VH: EVQLLESGGGVVQPGRSRRLSCAASGFSLNSYGMHWVRQAPGKGLEWVAVISYDGSNKYYADSVKGRFTISRDNSKNTLYLQMNSLRAEDTAVYYCAKLYSGSSNFDYWGQGTLVTVSS
VL: QSALTQPASVSGSPGQSITISCTGTSSDVGGYNYVSWYQQHPGKAPKLMIYDVSNRPSGVSNRFSGSKSGNTASLTISGLQAEDEADYYCSSYTSSSTWVFGGGTKLTVL
notes: tested as scFv-Fc (human IgG1); also called #22
B8: YU46-G8 (Fc fusion, not shown: a dimerising Fc or GST; small tags and cut ends)
VH: EVQLVESGGGVVQPGRSLRLSCAASGFSLGSYGMHWVRQAPGKGLEWVAVISYDGSNKYYADSVKGRFTISRDNSKNTLYLQMNSLRAEDTAVYYCAKGSYYFDYWGQGTLVTVSS
VL: DIQMTQSPSSLSASVGDRVTITCRASQGSSSYLAWYQQKPGKAPKLLIYAASSLQSGVPSRFSGSGSGTDFTLTISSLQPEDFATYYCQQSYSTPLYTFGQGTKLEIK
notes: tested as scFv-Fc (human IgG1); also called #54
B9: YU45-D9/D3 (Fc fusion)
VH: EVQLVESGGGVVQPGRSLRLSCAASGFTFSSYGMHWVRQAPGKGLEWVAVISYDGSNKYYADSVKGRFTISRDNSKNTLYLQMNSLRAEDTAVYYCARLHFSQYFSTIDAFDIWGQGTMVTISS
VL: QSVLTQPPSVSAAPGQEVTISCSGSSSNIGNNYVSWYQHLPGTAPKLLIYDNTERPSGIPDRFSGSRSGTSVTLGITGLQTGDEADYYCGTWDSSLSGGVFGGGTKLTVL
notes: tested as scFv-Fc (human IgG1); also called #31

The test addresses T1, human IL-11. Briefly: EC50 from the indirect ELISA titrations of FIGS. 28A-28F on plate-coated recombinant human IL-11 (five-parameter fit), ng/ml is the concentration unit of FIG. 28 and paragraph 502. On the technique in general: ELISA stands for enzyme-linked immunosorbent assay.
For B1, the EC50 (in general, the concentration needed to bring the measured effect to its halfway point) is 0.351 µg/mL.
Then B2, with 0.0101 µg/mL; and B3, with 0.222 µg/mL; and B4, with 0.0677 µg/mL.
Then B5, with 0.126 µg/mL; and B6, with 0.0146 µg/mL; and B7, with 0.0248 µg/mL.
Under B8 stands 0.0323 µg/mL; under B9, 0.71 µg/mL.

These data come from patent publication US20180186871A1 (SINGAPORE HEALTH SERVICES PTE, published 2018).
